Experimental data reported in doi:10.1101/2023.01.24.525315 (bioRxiv, 2023).

Key:
Fly Caf1 wild-type = Fly Caf1 wild-type (fly (Drosophila melanogaster), UniProt Q24572 1-430); assay: pull-down
[1] = molecular target: Caf1 H3 binding pocket mutant (E235Q/D252K/E279Q) (fly (Drosophila melanogaster), UniProt Q24572 1-430, E235Q | D252K | E279Q); assay: pull-down
Chain of Caf1 H3 binding pocket mutant (E235Q/D252K/E279Q) (Q24572 whole entry E235Q/D252K/E279Q): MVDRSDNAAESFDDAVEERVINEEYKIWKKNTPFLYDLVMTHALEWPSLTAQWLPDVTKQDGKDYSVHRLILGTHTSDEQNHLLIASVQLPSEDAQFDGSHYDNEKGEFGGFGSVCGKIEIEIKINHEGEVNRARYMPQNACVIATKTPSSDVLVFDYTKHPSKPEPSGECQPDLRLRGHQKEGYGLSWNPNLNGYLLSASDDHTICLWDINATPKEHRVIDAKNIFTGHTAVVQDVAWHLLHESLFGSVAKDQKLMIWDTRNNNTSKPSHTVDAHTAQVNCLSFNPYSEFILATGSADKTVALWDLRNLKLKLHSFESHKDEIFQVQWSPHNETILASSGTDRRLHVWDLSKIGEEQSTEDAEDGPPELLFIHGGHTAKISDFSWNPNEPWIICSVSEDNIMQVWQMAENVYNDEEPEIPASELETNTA

Chain of Fly Caf1 wild-type (Q24572 whole entry): as the sequence (Q24572 whole entry E235Q/D252K/E279Q) above, with Q235E, K252D, Q279E counted along it

AKLQPLSEKEKKLVRQFNTFLVRNFEKIRRCKAKR (domain or fragment, fly (Drosophila melanogaster), UniProt Q9VW15 1582-1616, looked up) [GST-CBM (Caf1-binding-motif, Ash1 1,582-1,616)]: binds (Fly Caf1 wild-type); binds [1].
